Measurements published in article PMC12607617, “Self-resistance mechanism to acyldepsipeptide antibiotics in the Streptomyces producer” (mBio, 2025).

Target: the molecule itself
Experiment: SEC; purified S. hawaiiensis ClpP1, alone or with ClpP_(ADEP), pre-incubated with ADEP1

B1: Streptomyces hawaiiensis ClpP1, untagged (enzyme, Streptomyces hawaiiensis NRRL 15010, UniProt A0A5B9BGY8 1-219, looked up)
chain: MRRPGAVVRRAGGYVTNLMPSAAGEPSIGGGLGDQVYNRLLNERIIFLGQPVDDDIANKITAQLLLLASDPEKDIYLYINSPGGSITAGMAIYDTMQYIKNDVVTIAMGLAASMGQFLLSAGTPGKRFALPNAEILIHQPSAGLAGSASDIKIHAERLLHTKKRMAELTSQHTGQTIEQITRDSDRDRWFDAFEAKEYGLIDDVMTTAAGMPGGGGTGA
notes: ClpP1, proteolytic subunit of the Clp protease, Streptomyces hawaiiensis NRRL 15010; Printed as untagged in the pull-down; also called shClpP1
stoichiometry N: 14
